Test results: patent US20080242608A1 (published 2008)

B1: Endogenous FOXO3 (293T cells) (other, UniProt O43524 1-673, looked up)
chain: MAEAPASPAPLSPLEVELDPEFEPQSRPRSCTWPLQRPELQASPAKPSGETAADSMIPEEEDDEDDEDGGGRAGSAMAIGGGGGSGTLGSGLLLEDSARVLAPGGQDPGSGPATAAGGLSGGTQALLQPQQPLPPPQPGAAGGSGQPRKCSSRRNAWGNLSYADLITRAIESSPDKRLTLSQIYEWMVRCVPYFKDKGDSNSSAGWKNSIRHNLSLHSRFMRVQNEGTGKSSWWIINPDGGKSGKAPRRRAVSMDNSNKYTKSRGRAAKKKAALQTAPESADDSPSQLSKWPGSPTSRSSDELDAWTDFRSRTNSNASTVSGRLSPIMASTELDEVQDDDAPLSPMLYSSSASLSPSVSKPCTVELPRLTDMAGTMNLNDGLTENLMDDLLDNITLPPSQPSPTGGLMQRSSSFPYTTKGSGLGSPTSSFNSTVFGPSSLNSLRQSPMQTIQENKPATFSSMSHYGNQTLQDLLTSDSLSHSDVMMTQSDPLMSQASTAVSAQNSRRNVMLRNDPMMSFAAQPNQGSLVNQNLLHHQHQTQGALGGSRALSNSVSNMGLSESSSLGSAKHQQQSPVSQSMQTLSDSLSGSSLYSTSANLPVMGHEKFPSDLDLDMFNGSLECDMESIIRSELMDADGLDFNFDSLISTQNVVGLNVGNFTGAKQASSQSWVPG

Assays:
[1] = target: B1; experiment: co-IP from 293T lysates with rabbit FOXO3 antibody, MST1 immunoblot
[2] = target: T1, protein kinase MLK3 (endogenous, 293T cells) (UniProt Q16584 1-847); experiment: co-IP from 293T lysates with rabbit FOXO3 antibody, MLK3 immunoblot
T1 construct: Negative control in the co-immunoprecipitation of endogenous FOXO3
T1 sequence (Q16584 whole entry): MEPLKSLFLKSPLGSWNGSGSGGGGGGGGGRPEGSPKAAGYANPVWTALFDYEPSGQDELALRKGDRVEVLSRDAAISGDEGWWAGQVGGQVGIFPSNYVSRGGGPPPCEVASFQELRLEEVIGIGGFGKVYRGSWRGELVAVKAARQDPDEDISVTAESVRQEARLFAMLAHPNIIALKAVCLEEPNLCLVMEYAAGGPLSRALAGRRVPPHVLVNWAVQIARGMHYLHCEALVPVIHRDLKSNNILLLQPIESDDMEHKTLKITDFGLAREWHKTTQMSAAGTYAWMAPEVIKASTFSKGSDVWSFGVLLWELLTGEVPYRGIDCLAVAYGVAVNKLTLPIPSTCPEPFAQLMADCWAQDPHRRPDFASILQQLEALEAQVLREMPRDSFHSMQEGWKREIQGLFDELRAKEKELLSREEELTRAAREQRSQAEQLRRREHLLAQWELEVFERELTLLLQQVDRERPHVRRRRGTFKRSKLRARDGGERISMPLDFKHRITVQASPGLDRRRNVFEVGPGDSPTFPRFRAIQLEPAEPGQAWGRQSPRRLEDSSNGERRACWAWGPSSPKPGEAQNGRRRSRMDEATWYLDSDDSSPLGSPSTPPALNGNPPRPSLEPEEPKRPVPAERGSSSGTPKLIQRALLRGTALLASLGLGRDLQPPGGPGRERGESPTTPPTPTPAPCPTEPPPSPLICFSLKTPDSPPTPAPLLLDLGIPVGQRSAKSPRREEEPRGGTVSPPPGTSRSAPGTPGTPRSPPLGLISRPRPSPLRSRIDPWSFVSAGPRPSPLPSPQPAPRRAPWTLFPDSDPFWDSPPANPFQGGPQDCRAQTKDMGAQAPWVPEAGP

Row | binding result [1] | binding result [2] | Binder
1 | binds | – | Endogenous MST1 (293T cells) (enzyme, UniProt Q13043 1-487, looked up) METVQLRNPPRRQLKKLDEDSLTKQPEEVFDVLEKLGEGSYGSVYKAIHKETGQIVAIKQVPVESDLQEIIKEISIMQQCDSPHVVKYYGSYFKNTDLWIVMEYCGAGSVSDIIRLRNKTLTEDEIATILQSTLKGLEYLHFMRKIHRDIKAGNILLNTEGHAKLADFGVAGQLTDTMAKRNTVIGTPFWMAPEVIQEIGYNCVADIWSLGITAIEMAEGKPPYADIHPMRAIFMIPTNPPPTFRKPELWSDNFTDFVKQCLVKSPEQRATATQLLQHPFVRSAKGVSILRDLINEAMDVKLKRQESQQREVDQDDEENSEEDEMDSGTMVRAVGDEMGTVRVASTMTDGANTMIEHDDTLPSQLGTMVINAEDEEEEGTMKRRDETMQPAKPSFLEYFEQKEKENQINSFGKSVPGPLKNSSDWKIPQDGDYEFLKSWTVEDLQKRLLALDPMMEQEIEEIRQKYQSKRQPILDAIEAKKRRQQNF
2 | – | no binding | B1
